For 1 molecule, activity results are on record in patent publication US20080279838, “Reconstructed Human Mariner Transposon Capable of Stable Gene Transfer Into Chromosomes in Vertebrates” (published 2008).

In this series the target is T1, Hsmar1-Prime transposase (Hsmar1-P) (Homo sapiens, UniProt Q53H47 SEQ:1-343).
T1 chain: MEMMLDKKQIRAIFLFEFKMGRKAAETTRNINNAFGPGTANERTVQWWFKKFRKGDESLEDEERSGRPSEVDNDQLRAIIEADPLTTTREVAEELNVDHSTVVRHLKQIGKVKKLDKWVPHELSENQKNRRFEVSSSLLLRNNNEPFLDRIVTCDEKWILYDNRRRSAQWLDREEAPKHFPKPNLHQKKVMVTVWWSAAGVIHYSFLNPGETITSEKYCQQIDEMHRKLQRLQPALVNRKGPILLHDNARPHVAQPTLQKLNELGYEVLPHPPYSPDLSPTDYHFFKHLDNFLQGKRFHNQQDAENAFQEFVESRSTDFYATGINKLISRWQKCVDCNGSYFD
The experiment in a line: cell_activity; HeLa cells, donor pHsmar1/neo plus helper; excision with 3 bp footprint, integration at TA. The conditions noted are these: tags: expressed from pFV-4a helper plasmid; chain copies: 2; 30 bp terminal inverted repeats in plasmid donor.

B1: Hsmar1 transposon inverted repeats (left IR / right IR, flanking SV40-neo in pHsmar1/neo) (dsDNA)
DNA 1: TTAGGTTGGTGCAAAAGTAATTGCGGTTTT
DNA 2: AAAACCGCAATTACTTTTGCACCAACCTAA
In the case of B1, the activity was ~20 fold increase in G418-resistant colonies.
